The text below walks through data of paper PMC11479587.

The assay addresses Ssa1 (yeast (S. cerevisiae)) (UniProt P10591).

Ssa1 (yeast (S. cerevisiae)), sequence (P10591 whole entry): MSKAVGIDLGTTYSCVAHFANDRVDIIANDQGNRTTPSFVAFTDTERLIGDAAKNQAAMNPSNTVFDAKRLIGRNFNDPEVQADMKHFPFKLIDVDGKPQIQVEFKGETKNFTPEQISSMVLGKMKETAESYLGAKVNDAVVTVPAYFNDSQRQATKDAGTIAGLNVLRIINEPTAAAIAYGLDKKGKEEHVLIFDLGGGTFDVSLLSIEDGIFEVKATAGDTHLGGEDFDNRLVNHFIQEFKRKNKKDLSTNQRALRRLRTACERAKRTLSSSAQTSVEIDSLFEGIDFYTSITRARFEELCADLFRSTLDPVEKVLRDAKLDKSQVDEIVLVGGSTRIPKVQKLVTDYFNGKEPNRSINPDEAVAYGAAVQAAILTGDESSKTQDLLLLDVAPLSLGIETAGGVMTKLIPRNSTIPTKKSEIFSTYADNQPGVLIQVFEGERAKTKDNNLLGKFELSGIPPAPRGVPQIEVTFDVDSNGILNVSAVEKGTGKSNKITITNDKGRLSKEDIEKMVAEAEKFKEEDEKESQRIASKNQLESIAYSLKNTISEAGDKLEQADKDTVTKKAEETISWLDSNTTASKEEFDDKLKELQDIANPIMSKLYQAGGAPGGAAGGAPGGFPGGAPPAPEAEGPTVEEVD

Turning to “Sse1-2 variant (N572Y E575A) (from UniProt P32589 1-693) (natural protein)”, the renaturation of heat-aggregated GFP by Ssa1-Sis1 (1 µM each); concentration of Sse1-2 against Sse1 WT needed for the same activity; no inhibition up to 2 µM Sse1-2 is 20 times.
